The source of these data is article PMC2192344.

The target of data set [1] is T1, His6-Elf-1 (human, UniProt P32519 1-619). The data set is described as follows: EMSA. (Mobility shift assays separate free from complexed probe on a gel.)
Data set [2] concerns the target T1, His6-Elf-1. Nature of the data set: EMSA. The source holds these as a separate data set.

Read-outs that look alike come from different tables or passages of the source.

T1 sequence (P32519 whole entry): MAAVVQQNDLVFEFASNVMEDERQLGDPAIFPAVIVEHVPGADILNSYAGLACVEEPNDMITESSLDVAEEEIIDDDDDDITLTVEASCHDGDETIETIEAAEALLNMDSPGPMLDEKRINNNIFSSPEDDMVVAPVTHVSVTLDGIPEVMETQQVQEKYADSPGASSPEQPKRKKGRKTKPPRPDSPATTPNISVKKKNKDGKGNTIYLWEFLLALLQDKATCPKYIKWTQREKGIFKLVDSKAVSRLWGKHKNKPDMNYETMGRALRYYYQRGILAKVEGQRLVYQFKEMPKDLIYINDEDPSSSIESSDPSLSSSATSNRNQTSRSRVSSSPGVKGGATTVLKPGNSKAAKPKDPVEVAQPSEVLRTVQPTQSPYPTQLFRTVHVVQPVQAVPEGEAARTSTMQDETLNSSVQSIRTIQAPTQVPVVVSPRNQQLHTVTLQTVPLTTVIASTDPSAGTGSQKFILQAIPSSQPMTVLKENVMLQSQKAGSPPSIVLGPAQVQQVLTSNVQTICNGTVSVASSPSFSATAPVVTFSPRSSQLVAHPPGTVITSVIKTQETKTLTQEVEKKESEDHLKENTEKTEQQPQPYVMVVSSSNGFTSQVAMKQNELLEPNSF

B1: m3 -97/-84 (dsDNA)
DNA 1: AAATATCGGAAGTG
DNA 2: CACTTCCGATATTT
Consider B1, for which, in data set [1], the binding result is listed as “no binding”.

B2: m2 -97/-84 (dsDNA)
DNA 1: AAATACCGGAAGTG
DNA 2: CACTTCCGGTATTT
On to B2, for which, in data set [2], the binding result is recorded as “binds”.
